This series deals with the molecule itself. Nature of the series: single-molecule photobleaching subunit capture.

B1: CLC-ec1 'WT' background (C85A/H234C) treated with glutaraldehyde (natural protein)
chain: MKTDTPSLETPQAARLRRRQLIRQLLERDKTPLAILFMAAVVGTLVGLAAVAFDKGVAWLQNQRMGALVHTADNYPLLLTVAFLASAVLAMFGYFLVRKYAPEAGGSGIPEIEGALEDQRPVRWWRVLPVKFFGGLGTLGGGMVLGREGPTVQIGGNIGRMVLDIFRLKGDEARHTLLATGAAAGLAAAFNAPLAGILFIIEEMRPQFRYTLISIKAVFIGVIMSTIMYRIFNCEVALIDVGKLSDAPLNTLWLYLILGIIFGIFGPIFNKWVLGMQDLLHRVHGGNITKWVLMGGAIGGLCGLLGFVAPATSGGGFNLIPIATAGNFSMGMLVFIFVARVITTLLCFSSGAPGGIFAPMLALGTVLGTAFGMVAVELFPQYHLEAGTFAIAGMGALLAASIRAPLTGIILVLEMTDNYQLILPMIITGLGATLLAQFTGGKPLYSAILARTLAKQEAEQLARSKAASASENT
modifications: Cy5-maleimide on H234C; cross-linked with glutaraldehyde (residues not stated)
Regarding B1, the binding result was “binds”.

B2: CLC-ec1 R230C/L249C on the 'WT' background (C85A/H234C), disulfide cross-linked (natural protein)
chain: MKTDTPSLETPQAARLRRRQLIRQLLERDKTPLAILFMAAVVGTLVGLAAVAFDKGVAWLQNQRMGALVHTADNYPLLLTVAFLASAVLAMFGYFLVRKYAPEAGGSGIPEIEGALEDQRPVRWWRVLPVKFFGGLGTLGGGMVLGREGPTVQIGGNIGRMVLDIFRLKGDEARHTLLATGAAAGLAAAFNAPLAGILFIIEEMRPQFRYTLISIKAVFIGVIMSTIMYCIFNCEVALIDVGKLSDAPCNTLWLYLILGIIFGIFGPIFNKWVLGMQDLLHRVHGGNITKWVLMGGAIGGLCGLLGFVAPATSGGGFNLIPIATAGNFSMGMLVFIFVARVITTLLCFSSGAPGGIFAPMLALGTVLGTAFGMVAVELFPQYHLEAGTFAIAGMGALLAASIRAPLTGIILVLEMTDNYQLILPMIITGLGATLLAQFTGGKPLYSAILARTLAKQEAEQLARSKAASASENT
Consider B2, for which the binding result was “binds”.

(Values after doi:10.1101/2022.08.03.502687 (bioRxiv, 2022).)
